Data taken from patent US20050255553A1 (LUDWIG INSTITUTE FOR CANCER RESEARCH, published 2005).

B1: MAGE-C2 nonapeptide SESIKKKVL (SEQ ID NO: 107) (peptide)
peptide: SESIKKKVL
notes: Synthetic peptide; also called MAGE.C2 antigenic peptide

What was measured:
HLA-B44 (HLA-B*4403) [1] = target: T1, HLA-B44 (HLA-B*4403) (human); test: lysis of peptide-pulsed BAGM-EBV cells by TIL 2.4
T1 construct: whole, on cells; MHC class I molecule on BAGM-EBV cells or transfected COS-7 cells
Experimental: FIG. 4 depicts the lysis of BAGM-EBV cells pulsed with the MAGE.C2.B44 peptides. […] TIL2.4 was added at a ratio of 15:1. The chromium release was measured after 4 hours. The nonapeptide (-▪-) is the antigenic sequence recognized by the TIL.
To identify the antigenic peptide, several minigenes were generated by amplifying different fragments of the MAGE-C2 cDNA by PCR. The PCR products were cloned into plasmid vector pCDNA3.1/His by TOPO T/A cloning (MAGE-C2/HLA-A2 patent and Ma W et al., Int. J. Cancer: in press, incorporated herein by reference). COS-7 cells were transfected with vectors encoding HLA-B44 and vectors encoding the different minigenes described above. TIL 2.4 were added to the transfected cells and TNF production was measured (FIG. 3X). […] Candidate peptides bearing the binding motif for HLA-B44 were then synthesized and pulsed onto BAGM-EBV cells. These pulsed cells were combined with TIL2.4 and assayed for lysis. […] The nonapeptide and the decapeptide were then synthesized and assayed individually.

HLA-B44 (HLA-B*4403) [2] = target: T1, HLA-B44 (HLA-B*4403); test: concluded from lysis of peptide-pulsed BAGM-EBV cells and TNF assays with HLA-B44 transfectants; no direct binding assay

| Binder | binding result (HLA-B44 (HLA-B*4403) [1]) | binding result (HLA-B44 (HLA-B*4403) [2]) |
| --- | --- | --- |
| SESIKKKVLEF (Synthetic peptide) [MAGE-C2 11-mer peptide SESIKKKVLEF (SEQ ID NO: 106)] | binds |  |
| B1 |  | binds |
